Our source for the IC50 (read off the curve) values is patent US20240083991A1.

Assay [1] deals with human mature BMP9 (human) (UniProt Q9UK05). In words: competition ELISA: antibody mixed with 0.2 nM BMP9-biotin, binding to coated ALK1 (1 µg/ml) detected. In general terms: In an ELISA, binding on a coated surface is turned into a signal by an enzyme label.
The target is the same in assay [2]. In words: competition ELISA: antibody mixed with 0.5 nM BMP9-biotin, binding to coated ALK1 (1 µg/ml) detected.
Assay [3] shares this target. The assay is described as follows: competition ELISA: antibody mixed with 5 nM BMP9-biotin, binding to coated ActRIIA (5 µg/ml) detected.
Assay [4] has the same target. The assay is described as follows: competition ELISA: antibody mixed with 0.6 nM BMP9-biotin, binding to coated BMPRII (1 µg/ml) detected.
For assay [5] the target is unchanged. The assay is described as follows: competition ELISA: antibody mixed with 15 nM BMP9-biotin, binding to coated ActRIIB (5 µg/ml) detected.
For assay [6] the target is unchanged. In words: competition ELISA: antibody mixed with 1.5 nM BMP9-biotin, binding to coated BMPRII (2 µg/ml) detected.

human mature BMP9 (human), sequence (Q9UK05 320-429): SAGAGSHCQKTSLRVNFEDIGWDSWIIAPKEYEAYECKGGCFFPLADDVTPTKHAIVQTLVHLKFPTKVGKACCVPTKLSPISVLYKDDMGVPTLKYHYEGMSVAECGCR

B1: BM02 (antibody, from another filing, V domains shown)
VH: QVQLVQSGAEVKKPGASVKVSCKASGYTFRSYNMHWVRQAPGQGLEWMGLIYPGNAVTSYSQKFKDRVTMTVDKSTSTAYMELSSLRSEDTAVYYCAKDDYFRGGSYAMDYWGQGTTVTVSS
VL: EIVLTQSPDFQSVTPKEKVTITCRASQSIRNNLHWYQQKPDQSPKLLIKYASQSIRGVPSRFSGSGSGTDFTLTINSLEAEDAATYYCQQSHSWPYTFGGGTKVEIKR
On to B1, for which the results for the IC50 (read off the curve) in assay [1] and in assay [2] were 0.06 nM and 0.1 nM, respectively.

B2: BM01 (antibody, from another filing, V domains shown)
VH: QVQLVQSGAEVKKPGASVKVSCKASGYTFTRYWMHWVRQAPGQGLEWMGEINPSQGGTNYNEKFKSRVTMTVDKSISTAYMELSRLRSDDTAVYYCAIGSNYGGLVYWGQGTLVTVSS
VL: EIVLTQSPATLSLSPGERATLSCRASESLDNYGISFMNWFQQKPGQAPRFLIYAASNQGSGIPARFSGSGSGTDFTLTISSLQPEDTAVYFCQQSKEVPRTFGGGTKVEIKR
For B2, the IC50 (read off the curve) in assay [3] is 2 nM; in assay [4] it was 0.1 nM; in assay [5] it was 8 nM; in assay [6], 2 nM.
